# From patent US20190167710A1 (UNIVERSITY OF PITTSBURGH OF THE COMMONWEALTH SYSTEM OF …, published 2019)
# Tests used:
# [1] = molecular target: T1, anaplastic lymphoma kinase (ALK), human, endogenous in THP1 cells (human, UniProt Q9UM73 19-1620, limits assumed); experiment: co-immunoprecipitation from THP1 cells after 3'3'-cGAMP or c-di-AMP (10 µg/ml, 16 h)
# T1 construct: Endogenous protein in lysates of human THP1 monocytes; also called ALK Receptor Tyrosine Kinase
# Description: (§1) Concentrations of proteins in the supernatant were determined by bicinchoninic acid assay. […] Following incubation, agarose/sepharose beads were washed extensively with PBS and proteins were eluted by boiling in 2× sodium dodecyl sulfate (SDS) sample buffer before SDS-PAGE electrophoresis.
# (§2) To elucidate the possible role of ALK in the regulation of the STING signaling pathway, we tested whether ALK promotes the phosphorylation of core components of the STING pathway (STING, TBK1, and cGAS) through protein-protein interaction using co-immunoprecipitation techniques.
# [2] = molecular target: T2, anaplastic lymphoma kinase (ALK), mouse, endogenous in iBMDMs and RAW264.7 cells (mouse, UniProt P97793 19-1621, limits assumed); experiment: co-immunoprecipitation from iBMDMs and RAW264.7 cells after 3'3'-cGAMP or c-di-AMP (10 µg/ml, 16 h)
# T2 construct: Endogenous protein in lysates of mouse macrophage lines (co-immunoprecipitation); also called ALK Receptor Tyrosine Kinase
# T2 sequence (P97793 19-1621 limits assumed): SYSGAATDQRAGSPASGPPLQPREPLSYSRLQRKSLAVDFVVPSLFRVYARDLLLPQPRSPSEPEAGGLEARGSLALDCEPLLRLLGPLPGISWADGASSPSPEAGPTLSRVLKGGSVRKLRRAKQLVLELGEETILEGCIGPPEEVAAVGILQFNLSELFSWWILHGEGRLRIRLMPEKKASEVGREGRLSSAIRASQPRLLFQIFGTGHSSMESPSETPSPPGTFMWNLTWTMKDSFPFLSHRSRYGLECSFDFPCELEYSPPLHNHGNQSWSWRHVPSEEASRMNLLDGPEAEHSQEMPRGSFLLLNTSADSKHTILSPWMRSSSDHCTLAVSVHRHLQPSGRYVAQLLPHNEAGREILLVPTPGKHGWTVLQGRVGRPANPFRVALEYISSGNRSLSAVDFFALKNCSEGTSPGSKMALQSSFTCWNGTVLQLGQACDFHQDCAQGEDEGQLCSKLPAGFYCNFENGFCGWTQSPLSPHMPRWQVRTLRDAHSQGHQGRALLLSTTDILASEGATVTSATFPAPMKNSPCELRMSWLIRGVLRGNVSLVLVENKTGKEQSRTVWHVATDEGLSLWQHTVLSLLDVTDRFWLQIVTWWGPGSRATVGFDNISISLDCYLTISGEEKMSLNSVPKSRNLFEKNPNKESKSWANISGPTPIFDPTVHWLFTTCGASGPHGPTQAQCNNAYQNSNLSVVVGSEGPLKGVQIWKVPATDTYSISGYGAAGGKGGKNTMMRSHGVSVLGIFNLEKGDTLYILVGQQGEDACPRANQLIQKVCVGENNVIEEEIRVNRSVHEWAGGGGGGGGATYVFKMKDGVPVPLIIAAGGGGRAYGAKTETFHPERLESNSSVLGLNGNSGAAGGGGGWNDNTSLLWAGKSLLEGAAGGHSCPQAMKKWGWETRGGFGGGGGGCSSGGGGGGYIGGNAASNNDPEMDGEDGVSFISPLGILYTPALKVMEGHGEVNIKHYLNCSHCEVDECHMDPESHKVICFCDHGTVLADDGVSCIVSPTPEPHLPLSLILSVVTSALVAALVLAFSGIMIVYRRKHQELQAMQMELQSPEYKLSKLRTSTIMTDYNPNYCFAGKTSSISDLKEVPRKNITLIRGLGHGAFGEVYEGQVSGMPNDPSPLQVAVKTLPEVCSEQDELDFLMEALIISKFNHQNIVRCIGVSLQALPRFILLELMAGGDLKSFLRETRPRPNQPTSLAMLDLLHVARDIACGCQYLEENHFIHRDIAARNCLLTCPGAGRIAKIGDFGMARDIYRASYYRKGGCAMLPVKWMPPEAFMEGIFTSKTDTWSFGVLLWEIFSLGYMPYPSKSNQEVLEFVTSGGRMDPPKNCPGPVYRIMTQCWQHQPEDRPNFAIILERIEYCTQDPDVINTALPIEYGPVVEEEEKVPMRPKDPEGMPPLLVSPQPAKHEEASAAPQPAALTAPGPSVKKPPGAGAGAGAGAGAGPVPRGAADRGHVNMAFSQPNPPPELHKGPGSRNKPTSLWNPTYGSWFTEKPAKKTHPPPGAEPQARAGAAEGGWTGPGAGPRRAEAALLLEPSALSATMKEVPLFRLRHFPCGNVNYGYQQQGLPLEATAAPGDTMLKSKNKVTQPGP
# Description: as §1, §2
# T1 sequence (Q9UM73 19-1620 limits assumed): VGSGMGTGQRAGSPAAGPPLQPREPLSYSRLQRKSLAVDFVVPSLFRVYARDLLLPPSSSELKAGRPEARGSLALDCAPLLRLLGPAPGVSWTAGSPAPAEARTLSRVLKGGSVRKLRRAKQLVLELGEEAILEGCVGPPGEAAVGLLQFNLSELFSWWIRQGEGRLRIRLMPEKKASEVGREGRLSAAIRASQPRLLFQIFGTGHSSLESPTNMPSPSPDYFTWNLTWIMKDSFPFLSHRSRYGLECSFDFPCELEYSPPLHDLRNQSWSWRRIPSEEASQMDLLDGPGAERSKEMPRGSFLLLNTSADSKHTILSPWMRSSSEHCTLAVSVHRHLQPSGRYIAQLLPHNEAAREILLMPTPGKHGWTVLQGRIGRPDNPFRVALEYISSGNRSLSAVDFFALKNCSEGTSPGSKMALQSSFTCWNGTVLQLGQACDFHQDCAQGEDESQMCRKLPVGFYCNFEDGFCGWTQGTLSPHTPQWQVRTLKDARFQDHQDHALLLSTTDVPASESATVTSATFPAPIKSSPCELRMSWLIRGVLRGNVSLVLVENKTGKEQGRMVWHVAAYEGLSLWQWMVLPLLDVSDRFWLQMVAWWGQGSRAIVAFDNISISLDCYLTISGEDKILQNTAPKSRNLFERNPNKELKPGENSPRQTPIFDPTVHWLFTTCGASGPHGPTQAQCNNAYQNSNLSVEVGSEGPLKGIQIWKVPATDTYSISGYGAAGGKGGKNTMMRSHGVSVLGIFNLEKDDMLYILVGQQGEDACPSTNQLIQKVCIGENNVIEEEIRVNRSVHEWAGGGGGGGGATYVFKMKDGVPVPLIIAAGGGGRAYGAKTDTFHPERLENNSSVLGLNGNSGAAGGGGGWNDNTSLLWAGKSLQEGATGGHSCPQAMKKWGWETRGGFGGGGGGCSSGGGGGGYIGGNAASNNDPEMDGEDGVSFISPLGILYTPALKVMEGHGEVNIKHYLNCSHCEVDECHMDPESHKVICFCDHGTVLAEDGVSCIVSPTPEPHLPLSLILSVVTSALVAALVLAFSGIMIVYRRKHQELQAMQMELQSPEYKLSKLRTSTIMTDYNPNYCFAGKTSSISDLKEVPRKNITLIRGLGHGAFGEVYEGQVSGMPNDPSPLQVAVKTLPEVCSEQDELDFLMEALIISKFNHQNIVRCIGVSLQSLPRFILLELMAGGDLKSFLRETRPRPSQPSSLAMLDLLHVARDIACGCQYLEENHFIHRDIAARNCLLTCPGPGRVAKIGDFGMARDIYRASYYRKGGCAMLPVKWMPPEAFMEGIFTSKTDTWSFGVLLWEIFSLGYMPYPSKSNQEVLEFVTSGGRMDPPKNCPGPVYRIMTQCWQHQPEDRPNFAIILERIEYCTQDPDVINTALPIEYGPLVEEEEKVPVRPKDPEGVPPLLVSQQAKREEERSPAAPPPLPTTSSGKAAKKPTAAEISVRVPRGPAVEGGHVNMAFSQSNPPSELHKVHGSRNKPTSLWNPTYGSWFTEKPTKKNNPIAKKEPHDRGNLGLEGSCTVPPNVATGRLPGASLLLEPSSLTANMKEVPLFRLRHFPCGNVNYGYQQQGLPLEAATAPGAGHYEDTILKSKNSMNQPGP
Binder,binding result [1],binding result [2]
"TANK-binding kinase 1 (TBK1), human, endogenous in THP1 cells (enzyme, UniProt Q9UHD2 1-729, looked up, Endogenous protein in cell lysates; also called TBK1/NAK) MQSTSNHLWLLSDILGQGATANVFRGRHKKTGDLFAIKVFNNISFLRPVDVQMREFEVLKKLNHKNIVKLFAIEEETTTRHKVLIMEFCPCGSLYTVLEEPSNAYGLPESEFLIVLRDVVGGMNHLRENGIVHRDIKPGNIMRVIGEDGQSVYKLTDFGAARELEDDEQFVSLYGTEEYLHPDMYERAVLRKDHQKKYGATVDLWSIGVTFYHAATGSLPFRPFEGPRRNKEVMYKIITGKPSGAISGVQKAENGPIDWSGDMPVSCSLSRGLQVLLTPVLANILEADQEKCWGFDQFFAETSDILHRMVIHVFSLQQMTAHKIYIHSYNTATIFHELVYKQTKIISSNQELIYEGRRLVLEPGRLAQHFPKTTEENPIFVVSREPLNTIGLIYEKISLPKVHPRYDLDGDASMAKAITGVVCYACRIASTLLLYQELMRKGIRWLIELIKDDYNETVHKKTEVVITLDFCIRNIEKTVKVYEKLMKINLEAAELGEISDIHTKLLRLSSSQGTIETSLQDIDSRLSPGGSLADAWAHQEGTHPKDRNVEKLQVLLNCMTEIYYQFKKDKAERRLAYNEEQIHKFDKQKLYYHATKAMTHFTDECVKKYEAFLNKSEEWIRKMLHLRKQLLSLTNQCFDIEEEVSKYQEYTNELQETLPQKMFTASSGIKHTMTPIYPSSNTLVEMTLGMKKLKEEMEGVVKELAENNHILERFGSLTMDGGLRNVDCL",no binding,
"TIR-domain-containing adapter-inducing interferon-β (TRIF), mouse, endogenous in iBMDMs and RAW264.7 cells (other, UniProt Q80UF7 1-732, looked up, Endogenous protein in cell lysates; also called TICAM-1) MDNPGPSLRGAFGILGALERDRLTHLKHKLGSLCSGSQESKLLHAMVLLALGQDTEARVSLESLKMNTVAQLVAHQWADMETTEGPEEPPDLSWTVARLYHLLAEENLCPASTRDMAYQVALRDFASQGDHQLGQLQNEAWDRCSSDIKGDPSGFQPLHSHQGSLQPPSASPAVTRSQPRPIDTPDWSWGHTLHSTNSTASLASHLEISQSPTLAFLSSHHGTHGPSKLCNTPLDTQEPQLVPEGCQEPEEISWPPSVETSVSLGLPHEISVPEVSPEEASPILPDALAAPDTSVHCPIECTELSTNSRSPLTSTTESVGKQWPITSQRSPQVPVGDDSLQNTTSSSPPAQPPSLQASPKLPPSPLSSASSPSSYPAPPTSTSPVLDHSETSDQKFYNFVVIHARADEQVALRIREKLETLGVPDGATFCEEFQVPGRGELHCLQDAIDHSGFTILLLTASFDCSLSLHQINHALMNSLTQSGRQDCVIPLLPLECSQAQLSPDTTRLLHSIVWLDEHSPIFARKVANTFKTQKLQAQRVRWKKAQEARTLKEQSIQLEAERQNVAAISAAYTAYVHSYRAWQAEMNKLGVAFGKNLSLGTPTPSWPGCPQPIPSHPQGGTPVFPYSPQPPSFPQPPCFPQPPSFPQPPSFPLPPVSSPQSQSFPSASSPAPQTPGPQPLIIHHAQMVQLGVNNHMWGHTGAQSSDDKTECSENPCMGPLTDQGEPLLETPE",,no binding
"cyclic-guanosine monophosphate-adenosine monophosphate (cGAMP) synthase (cGAS), human, endogenous in THP1 cells (enzyme, UniProt Q8N884 1-522, looked up, Endogenous protein in cell lysates) MQPWHGKAMQRASEAGATAPKASARNARGAPMDPTESPAAPEAALPKAGKFGPARKSGSRQKKSAPDTQERPPVRATGARAKKAPQRAQDTQPSDATSAPGAEGLEPPAAREPALSRAGSCRQRGARCSTKPRPPPGPWDVPSPGLPVSAPILVRRDAAPGASKLRAVLEKLKLSRDDISTAAGMVKGVVDHLLLRLKCDSAFRGVGLLNTGSYYEHVKISAPNEFDVMFKLEVPRIQLEEYSNTRAYYFVKFKRNPKENPLSQFLEGEILSASKMLSKFRKIIKEEINDIKDTDVIMKRKRGGSPAVTLLISEKISVDITLALESKSSWPASTQEGLRIQNWLSAKVRKQLRLKPFYLVPKHAKEGNGFQEETWRLSFSHIEKEILNNHGKSKTCCENKEEKCCRKDCLKLMKYLLEQLKERFKDKKHLDKFSSYHVKTAFFHVCTQNPQDSQWDRKDLGLCFDNCVTYFLQCLRTEKLENYFIPEFNLFSSNLIDKRSKEFLTKQIEYERNNEFPVFDEF",no binding,

# The next lines start with the values.
binding result [1],binding result [2],Binder
,no binding,"TANK-binding kinase 1 (TBK1), mouse, endogenous in iBMDMs and RAW264.7 cells (enzyme, UniProt Q9WUN2 1-729, looked up, Endogenous protein in cell lysates; also called TBK1/NAK) MQSTSNHLWLLSDILGQGATANVFRGRHKKTGDLYAVKVFNNISFLRPVDVQMREFEVLKKLNHKNIVKLFAIEEETTTRHKVLIMEFCPCGSLYTVLEEPSNAYGLPESEFLIVLRDVVGGMNHLRENGIVHRDIKPGNIMRVIGEDGQSVYKLTDFGAARELEDDEQFVSLYGTEEYLHPDMYERAVLRKDHQKKYGATVDLWSVGVTFYHAATGSLPFRPFEGPRRNKEVMYKIITGKPSGAISGVQKAENGPIDWSGDMPLSCSLSQGLQALLTPVLANILEADQEKCWGFDQFFAETSDVLHRMVIHVFSLQHMTAHKIYIHSYNTAAVFHELVYKQTKIVSSNQELIYEGRRLVLELGRLAQHFPKTTEENPIFVTSREQLNTVGLRYEKISLPKIHPRYDLDGDASMAKAVTGVVCYACRTASTLLLYQELMRKGVRWLVELVKDDYNETVHKKTEVVITLDFCIRNIEKTVKVYEKLMKVNLEAAELGEISDIHTKLLRLSSSQGTIESSLQDISSRLSPGGLLADTWAHQEGTHPRDRNVEKLQVLLNCITEIYYQFKKDKAERRLAYNEEQIHKFDKQKLYYHATKAMSHFSEECVRKYEAFKDKSEEWMRKMLHLRKQLLSLTNQCFDIEEEVSKYQDYTNELQETLPQKMLAASGGVKHAMAPIYPSSNTLVEMTLGMKKLKEEMEGVVKELAENNHILERFGSLTMDGGLRNVDCL"
,no binding,"stimulator of interferon genes (STING), mouse, endogenous in iBMDMs and RAW264.7 cells (other, UniProt Q3TBT3 1-378, looked up, Endogenous protein in cell lysates) MPYSNLHPAIPRPRGHRSKYVALIFLVASLMILWVAKDPPNHTLKYLALHLASHELGLLLKNLCCLAEELCHVQSRYQGSYWKAVRACLGCPIHCMAMILLSSYFYFLQNTADIYLSWMFGLLVLYKSLSMLLGLQSLTPAEVSAVCEEKKLNVAHGLAWSYYIGYLRLILPGLQARIRMFNQLHNNMLSGAGSRRLYILFPLDCGVPDNLSVVDPNIRFRDMLPQQNIDRAGIKNRVYSNSVYEILENGQPAGVCILEYATPLQTLFAMSQDAKAGFSREDRLEQAKLFCRTLEEILEDVPESRNNCRLIVYQEPTDGNSFSLSQEVLRHIRQEEKEEVTMNAPMTSVAPPPSVLSQEPRLLISGMDQPLPLRTDLI"
